PMC2726290 (2008)
Residue numbers refer to the chain shown, from its start. No end group written: not given here.

Key:
hPygo1 PHD finger V350E = biological target: T1, hPygo1 PHD finger V350E (human, UniProt Q9Y3Y4 333-402, V350E); assay: ITC
T1 sequence: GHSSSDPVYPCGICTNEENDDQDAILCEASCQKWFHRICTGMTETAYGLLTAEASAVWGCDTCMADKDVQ

[1] = biological target: hPygo1 PHD finger mutated at N351 (human, UniProt Q9Y3Y4 333-402); assay: ITC; N351A
[2] = biological target: hPygo1 PHD finger mutated at Q354 (human, UniProt Q9Y3Y4 333-402); assay: ITC; Q354A
[3] = biological target: T2, hPHD-HD1 complex (hPygo1 PHD 333-402 with hBCL9 HD1) (human, UniProt Q9Y3Y4 333-402; O00512 177-205); assay: ITC
T2 chain 1: T1 sequence with E18V
T2 chain 2: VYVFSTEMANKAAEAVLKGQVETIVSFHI

B1: H3K4me3 15-mer histone H3 tail peptide (peptide)
peptide: ARTKQTARKSTGGKA
modifications: trimethyl-lysine at K4
Kd (hPygo1 PHD finger V350E): 98 µM | Kd [1]: 7.1 µM | Kd [2]: 13.8 µM

B2: H3K4me2 9-mer whose A1 was substituted with a glycine (peptide)
peptide: GRTKQTARK
modifications: dimethyl-lysine at K4
Kd [3]: 99.8 µM

B3: H3K4me1 15-mer histone H3 tail peptide (peptide)
peptide: ARTK(Me)QTARKSTGGKA
Kd [3]: 2.2 µM
